The target of experiment [1] is T1, RbAB (Homo sapiens, UniProt P06400).
T1 construct: residues 372 to 589 of the A domain and 636 to 787 of the B domain; GST (with Prescission protease site) (N, cleaved yes); engineered thrombin site (LVPRGS) at the A-domain end of the A-B linker (C, cleaved yes); engineered thrombin site (LVPRGS) at the B-domain end of the A-B linker (N, cleaved yes); made in house; host or cells: E. coli
T1 sequence (P06400 whole entry, looked up): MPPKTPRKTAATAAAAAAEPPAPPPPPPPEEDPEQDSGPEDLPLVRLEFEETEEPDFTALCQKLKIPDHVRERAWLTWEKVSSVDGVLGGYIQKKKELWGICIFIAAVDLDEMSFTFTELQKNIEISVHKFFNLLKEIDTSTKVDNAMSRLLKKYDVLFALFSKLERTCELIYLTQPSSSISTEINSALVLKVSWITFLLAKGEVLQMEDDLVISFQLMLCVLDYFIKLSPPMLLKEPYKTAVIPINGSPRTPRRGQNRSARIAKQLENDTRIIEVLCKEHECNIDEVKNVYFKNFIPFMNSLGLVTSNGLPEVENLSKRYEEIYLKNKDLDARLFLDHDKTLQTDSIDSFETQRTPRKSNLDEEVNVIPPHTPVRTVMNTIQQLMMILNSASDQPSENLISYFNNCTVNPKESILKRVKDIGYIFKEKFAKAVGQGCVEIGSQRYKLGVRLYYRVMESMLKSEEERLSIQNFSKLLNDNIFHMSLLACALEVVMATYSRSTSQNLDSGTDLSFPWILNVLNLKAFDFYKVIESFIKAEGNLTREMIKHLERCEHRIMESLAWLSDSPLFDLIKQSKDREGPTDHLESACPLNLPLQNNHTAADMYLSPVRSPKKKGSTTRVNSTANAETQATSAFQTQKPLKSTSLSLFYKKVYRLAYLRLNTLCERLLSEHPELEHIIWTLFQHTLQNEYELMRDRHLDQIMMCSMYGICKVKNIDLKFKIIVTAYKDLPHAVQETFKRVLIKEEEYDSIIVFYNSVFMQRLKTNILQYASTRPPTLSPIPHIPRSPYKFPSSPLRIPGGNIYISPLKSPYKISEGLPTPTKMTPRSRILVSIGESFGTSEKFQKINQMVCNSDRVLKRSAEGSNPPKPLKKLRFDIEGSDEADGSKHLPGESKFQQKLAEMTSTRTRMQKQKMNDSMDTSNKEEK
Description: RbAB. From the text: Table printed on a drawing sheet, FIG. 2B
The patent's description of the figure: FIG. 2.
First copying reader's note: Binding constants of E2F fragments to the Rb constructs RbAB and RbABC; the error is printed in the same cell as the value.
Where the first naming reader finds the target: head: RbAB

The target in experiment [2] is T2, RbABC (Homo sapiens, UniProt P06400).
T2 construct: His6-RbABC (RESIDUES 380-929); made in house; host or cells: E. coli
T2 sequence (P06400 380-928 limits assumed): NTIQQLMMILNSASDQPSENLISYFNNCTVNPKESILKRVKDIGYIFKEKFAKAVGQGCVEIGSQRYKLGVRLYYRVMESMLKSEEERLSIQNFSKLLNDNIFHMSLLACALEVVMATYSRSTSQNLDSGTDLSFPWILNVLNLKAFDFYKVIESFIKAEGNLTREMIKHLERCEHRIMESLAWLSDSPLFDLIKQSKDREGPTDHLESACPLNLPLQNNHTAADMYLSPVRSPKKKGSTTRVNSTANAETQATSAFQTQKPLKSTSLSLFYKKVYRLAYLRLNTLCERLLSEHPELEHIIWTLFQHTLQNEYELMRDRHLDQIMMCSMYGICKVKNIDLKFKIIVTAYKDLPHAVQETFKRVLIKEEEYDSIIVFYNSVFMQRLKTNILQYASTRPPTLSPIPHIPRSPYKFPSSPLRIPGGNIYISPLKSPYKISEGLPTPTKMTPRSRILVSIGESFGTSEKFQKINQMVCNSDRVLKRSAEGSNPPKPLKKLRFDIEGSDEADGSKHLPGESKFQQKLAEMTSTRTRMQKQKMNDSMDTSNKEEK
Description: Isothermal titration calorimetry of E2F constructs binding to RbABC. To be noted: ITC. Here is the method: (B) Summary of dissociation constants obtained by ITC measurements. The quoted errors are those produced by fitting the data to a two-state model. For the interaction of E2F(243-437) to RbAB and RbABC the affinities are too high to measure reliably and we have therefore quoted the upper limits of the dissociation constants.
Binding of the various E2F constructs to RbAB and RbABC was measured by isothermal titration calorimetry using a MicroCal Omega VP-ITC machine (MicroCal Inc., Northampton, USA). The E2F constructs at a concentration between 100-150 μM were titrated into 12-15 μM Rb at a temperature of 22° C. Proteins were dialysed against 50 mM Tris pH 7.6, 100 mM NaCl and 1 mM TCEP. After subtraction of the dilution heats, calorimetric data was analysed using the evaluation software MicroCal Origin v5.0 (MicroCal Software Inc.). For all of the titrations, the stoichiometry of ligand binding to Rb was very close to 1.0. For E2F(243-437) binding to Rb, the binding affinity and the heat change associated with binding were such that we could only establish that binding was tighter than 10 nM.

B1: E2F(243-437): Recombinant human E2F1(243-437) expressed in E. coli (protein, UniProt Q01094 243-437, looked up, fragment)
chain: LAYVTCQDLRSIADPAEQMVMVIKAPPETQLQAVDSSENFQISLKSKQGPIDVFLCPEETVGGISPGKTPSQEVTSEEENRATDSATIVSPPPSSPPSSLTTDPSQSLLSLEQEPLLSRMGSLRAPVDEDRLSPLVAADSLLEHVREDFSGLLPEEFISLSPPHEALDYHFGLEEGEGIRDLFDCDFGDLTPLDF
For B1, the Kd in experiment [1] is less than 10 nM. Also, the “binds stronger than either of the two shorter E2F fragments” value in experiment [2] is “at least 16 fold”.

Source of the values: US20060234906A1, “Structure of a complex of retinoblastoma protein bound to e2f, and uses thereof” (priority 2002, published 2006).
